Experimental findings from patent US20200385441A1 (TECHNION RESEARCH AND DEVELOPMENT FOUNDATION, published 2020) are described below.

The target in this assay is T1, human Melanoma-associated Chondroitin Sulfate Proteoglycan (MCSP) (human, UniProt Q6UVK1 30-2322).
T1 construct: whole, on cells; also called CSPG4; NG2
Description: flow cytometry on B16F10-MCSP (C25) cells, detected with Strep-PE or fold-specific anti-H-2K antibody. (In general: In flow cytometry, cells or beads pass a laser one at a time.)

T1 sequence (Q6UVK1 30-2322): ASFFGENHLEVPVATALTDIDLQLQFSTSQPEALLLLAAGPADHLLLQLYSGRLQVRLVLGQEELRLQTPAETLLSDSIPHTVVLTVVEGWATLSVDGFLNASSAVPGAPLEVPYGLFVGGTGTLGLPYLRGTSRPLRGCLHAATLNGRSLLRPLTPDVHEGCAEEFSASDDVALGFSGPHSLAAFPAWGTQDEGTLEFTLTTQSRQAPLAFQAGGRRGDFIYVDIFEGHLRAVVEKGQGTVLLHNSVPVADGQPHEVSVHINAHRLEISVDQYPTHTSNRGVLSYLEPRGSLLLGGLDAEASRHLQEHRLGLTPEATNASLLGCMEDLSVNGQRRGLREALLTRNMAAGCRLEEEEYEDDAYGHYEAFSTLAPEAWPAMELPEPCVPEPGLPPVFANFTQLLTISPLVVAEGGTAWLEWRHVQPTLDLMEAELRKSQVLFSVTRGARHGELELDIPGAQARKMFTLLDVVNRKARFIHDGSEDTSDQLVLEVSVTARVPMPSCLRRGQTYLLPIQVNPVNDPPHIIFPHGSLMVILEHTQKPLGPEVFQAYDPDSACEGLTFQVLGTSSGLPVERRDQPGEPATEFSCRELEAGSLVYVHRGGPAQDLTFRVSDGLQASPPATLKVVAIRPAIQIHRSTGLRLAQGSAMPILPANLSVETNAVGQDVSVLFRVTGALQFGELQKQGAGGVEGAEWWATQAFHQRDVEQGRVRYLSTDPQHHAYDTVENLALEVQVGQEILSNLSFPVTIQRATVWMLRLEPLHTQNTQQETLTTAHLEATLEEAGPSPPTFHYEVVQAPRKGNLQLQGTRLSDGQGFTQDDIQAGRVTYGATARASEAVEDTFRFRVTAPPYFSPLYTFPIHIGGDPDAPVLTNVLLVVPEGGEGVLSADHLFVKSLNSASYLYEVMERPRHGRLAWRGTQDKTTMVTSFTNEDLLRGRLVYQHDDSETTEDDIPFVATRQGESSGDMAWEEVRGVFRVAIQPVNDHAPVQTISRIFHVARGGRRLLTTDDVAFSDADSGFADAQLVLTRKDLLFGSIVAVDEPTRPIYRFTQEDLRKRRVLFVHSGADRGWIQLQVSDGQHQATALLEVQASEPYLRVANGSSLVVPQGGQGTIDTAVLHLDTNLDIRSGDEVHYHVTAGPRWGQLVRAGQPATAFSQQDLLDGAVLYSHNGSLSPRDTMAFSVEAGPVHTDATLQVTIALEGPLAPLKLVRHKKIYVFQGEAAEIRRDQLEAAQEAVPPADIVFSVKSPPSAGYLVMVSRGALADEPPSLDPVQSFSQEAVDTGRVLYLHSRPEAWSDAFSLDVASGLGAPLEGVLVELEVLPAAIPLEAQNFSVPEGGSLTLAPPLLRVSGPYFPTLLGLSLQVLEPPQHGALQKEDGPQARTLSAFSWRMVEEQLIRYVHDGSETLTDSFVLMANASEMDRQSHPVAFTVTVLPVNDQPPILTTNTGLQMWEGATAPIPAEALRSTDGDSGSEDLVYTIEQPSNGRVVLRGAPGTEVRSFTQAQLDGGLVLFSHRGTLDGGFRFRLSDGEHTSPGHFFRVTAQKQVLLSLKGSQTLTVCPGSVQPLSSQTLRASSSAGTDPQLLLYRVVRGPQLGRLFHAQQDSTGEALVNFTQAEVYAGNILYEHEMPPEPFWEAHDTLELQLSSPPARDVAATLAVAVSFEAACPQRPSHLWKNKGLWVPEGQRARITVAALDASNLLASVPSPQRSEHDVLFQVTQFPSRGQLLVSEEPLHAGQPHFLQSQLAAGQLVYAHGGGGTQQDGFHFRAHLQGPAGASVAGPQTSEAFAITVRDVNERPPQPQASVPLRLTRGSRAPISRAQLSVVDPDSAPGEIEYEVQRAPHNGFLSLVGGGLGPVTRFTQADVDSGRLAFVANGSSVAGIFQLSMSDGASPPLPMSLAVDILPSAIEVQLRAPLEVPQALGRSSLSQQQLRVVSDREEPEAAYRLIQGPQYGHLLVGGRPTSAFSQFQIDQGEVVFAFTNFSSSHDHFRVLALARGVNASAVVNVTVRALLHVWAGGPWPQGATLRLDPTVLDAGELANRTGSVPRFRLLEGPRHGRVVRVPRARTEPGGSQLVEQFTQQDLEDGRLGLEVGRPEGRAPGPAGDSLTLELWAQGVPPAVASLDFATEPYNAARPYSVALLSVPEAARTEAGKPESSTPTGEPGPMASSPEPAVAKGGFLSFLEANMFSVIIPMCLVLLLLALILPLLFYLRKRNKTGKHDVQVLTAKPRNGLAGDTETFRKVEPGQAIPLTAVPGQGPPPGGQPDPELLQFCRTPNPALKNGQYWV

B1: BA5 biotinylated peptide-H-2Kb-anti-MCSP scFv fusion protein, 20 amino acid β2M-MHC linker (peptide-MHC)
chain: RTYTYEKLGGGGSGGGGSGGGGSIQKTPQIQVYSRHPPENGKPNILNCYVTQFHPPHIEIQMLKNGKKIPKVEMSDMSFSKDWSFYILAHTEFTPTETDTYACRVKHVSMAEPKTVYWDRDMGGGGSGGGGSGGGGSGGGGSGPHSLRYFVTAVSRPGLGEPRYMEVGYVDDTEFVRFDSDAENPRYEPRARWMEQEGPEYWERETQKAKGNEQSFRVDLRTLLGYYNQSKGGSHTIQVISGCEVGSDGRLLRGYQQYAYDGCDYIALNEDLKTWTAADMAALITKHKWEQAGEAERLRAYLEGTCVEWLRRYLKNGNATLLRTDSPKAHVTHHSRPEDKVTLRCWALGFYPADITLTWQLNGEELIQDMELVETRPAGDGTFQKWASVVVPLGKEQYYTCHVYHQGLPEPLTLRWEPPPSTASGGQVKLQQSGGGLVQPGGSMKLSCVVSGFTFSNYWMNWVRQSPEKGLEWIAEIRLKSNNFGRYYAESVKGRFTISRDDSKSSAYLQMINLRAEDTGIYYCTSYGNYVGHYFDHWGQGTTVTVSSGGGGSGGGGSGGGGSDIELTQSPKFMSTSVGDRVSVTCKASQNVDTNVAWYQQKPGQSPEPLLFSASYRYTGVPDRFTGSGSGTDFTLTISNVQSEDLAEYFCQQYNSYPLTFGGGTKLEIKRAHHHHHHGLNDIFEAQKIEWH
notes: also called BA-biotin fusion molecule; biotinylated ScFv-MHC molecule
Consider B1, for which the binding result is “binds”.
